Test results published in patent US20250346679A1 (INVOX PHARMA, published 2025).

T1: mouse FcRn (R&D systems, 9114-Fc) (mouse, UniProt Q61559 22-297; P01887 21-119, limits assumed)
T1 sequence (looked up) 1: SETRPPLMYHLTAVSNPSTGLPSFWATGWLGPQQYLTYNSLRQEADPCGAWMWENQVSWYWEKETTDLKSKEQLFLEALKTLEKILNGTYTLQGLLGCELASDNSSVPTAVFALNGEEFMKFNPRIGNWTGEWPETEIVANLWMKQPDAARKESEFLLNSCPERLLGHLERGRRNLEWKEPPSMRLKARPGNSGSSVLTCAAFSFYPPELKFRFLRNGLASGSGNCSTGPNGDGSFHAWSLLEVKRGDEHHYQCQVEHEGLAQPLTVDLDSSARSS
T1 sequence (looked up) 2: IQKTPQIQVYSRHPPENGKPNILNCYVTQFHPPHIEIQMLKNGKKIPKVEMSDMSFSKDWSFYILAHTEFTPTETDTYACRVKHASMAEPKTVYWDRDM


Legend:
[1] = target: T2, human PD-L1, cell-surface (human, UniProt Q9NZQ7 19-290); test: cell-based or functional assay
T2 sequence (Q9NZQ7 19-290): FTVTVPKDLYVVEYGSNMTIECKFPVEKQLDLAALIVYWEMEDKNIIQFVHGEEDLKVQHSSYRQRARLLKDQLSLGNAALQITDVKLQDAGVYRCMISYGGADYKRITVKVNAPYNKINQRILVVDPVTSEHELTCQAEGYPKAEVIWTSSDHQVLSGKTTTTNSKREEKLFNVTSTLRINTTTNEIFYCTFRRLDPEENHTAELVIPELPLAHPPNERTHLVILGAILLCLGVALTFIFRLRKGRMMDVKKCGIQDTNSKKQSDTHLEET

[2] = target: T2, human PD-L1, cell-surface; test: flow cytometry on HEK.hPD-L1
Method: (§1) Non-specific binding was also assessed by testing binding to HEK293 parental cells lacking human PD-L1 (Flp-In T-Rex 293 cell line, Life Technologies, R780-07).
(§2) HEK293, HEK.hPD-L1 and HEK.cPD-L1 suspensions were prepared in FACS buffer (DPBS (Gibco, 14190-094) containing 0.5% BSA (Sigma, A7906)) and seeded at 1×10⁵ cell/well in 100 μl in round bottomed 96-well plates (VWR, 734-1797). […] The washed cells were resuspended in the diluted antibody mixture, incubated at 4° C. for 30 minutes, and then washed once in FACS buffer. […] Dead cells were excluded and the fluorescence in the APC channel (638 nm 660/20) was measured. The geometric mean fluorescence intensity (GMFI) values were plotted vs the log concentration of antibody and the resulting curves were fitted using the log (agonist) vs response equation in GraphPad Prism.

[3] = target: T3, cynomolgus PD-L1, cell-surface (cynomolgus); test: flow cytometry on HEK.cPD-L1
T3 construct: also called HEK.cPD-L1; HEK.cyPD-L1
T3 sequence (chain, as listed by the source limits assumed): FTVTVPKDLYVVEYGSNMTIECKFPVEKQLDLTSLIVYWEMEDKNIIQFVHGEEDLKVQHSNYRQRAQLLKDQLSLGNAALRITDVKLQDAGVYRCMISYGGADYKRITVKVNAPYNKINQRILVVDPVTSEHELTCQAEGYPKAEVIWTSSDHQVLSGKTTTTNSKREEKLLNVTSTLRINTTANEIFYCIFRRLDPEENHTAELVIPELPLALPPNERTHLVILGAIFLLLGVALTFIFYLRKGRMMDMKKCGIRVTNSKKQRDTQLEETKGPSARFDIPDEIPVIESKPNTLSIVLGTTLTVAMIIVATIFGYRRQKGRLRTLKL
Method: as §1, §2

[4] = target: T4, biotinylated hPD-L1-Avi-His (Acro Biosystems, PD1-H82E5) (human, UniProt Q9NZQ7 19-238, biotinylated); test: SPR, antibody captured on Protein A chip, antigen in flow
T4 construct: bought; also called Human PD-L1-His; not shown: Avi and His tags of the bought product
T4 sequence (Q9NZQ7 19-238): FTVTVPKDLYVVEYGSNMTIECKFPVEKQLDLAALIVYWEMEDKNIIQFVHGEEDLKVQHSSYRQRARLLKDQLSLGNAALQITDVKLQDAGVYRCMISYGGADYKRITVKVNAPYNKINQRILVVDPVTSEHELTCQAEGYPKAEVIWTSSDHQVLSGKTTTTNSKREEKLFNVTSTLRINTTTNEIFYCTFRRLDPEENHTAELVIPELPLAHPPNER

[5] = target: T5, cPD-L1-His (Acro Biosystems, PD1-C52H4) (cynomolgus, UniProt Q9NZQ7 19-238 (human entry)); test: as above
T5 construct: bought; also called Cyno PD-L1-His; Cynomolgus PD-L1-His; not shown: His tag of the bought product
T5 sequence (Q9NZQ7 other isoform, or with tags, fused parts or gaps): as the sequence (Q9NZQ7 19-238) above, with A33T, A34S, S62N, R68Q, Q82R, F173L, T185A, T192I, H215L counted along it

[6] = target: T2, human PD-L1, cell-surface; test: cell-based or functional assay; remark: listed apart in the source
[7] = target: T2, human PD-L1, cell-surface; test: flow cytometry on activated primary human CD4+ T cells; activated primary human CD4+ T cells
Method: CD137 is rapidly expressed to high levels on activated CD8⁺ T cells and also on activated CD4⁺ T cells with lower levels (Xue-Zhong Yu et al, 2013), therefore Pan T cells were stimulated for 24 hours using Dynabeads™ Human T-Activator CD3/CD28 beads (Thermo, 11132D) according to manufacturer's instructions.
Dead cells were excluded and the fluorescence in the APC channel (638 nm 660/20) was measured to show test antibody binding. The geometric Mean Fluorescence Intensity (GMFI) values were plotted vs the log concentration of antibody and the resulting curves were fitted using the log (agonist) vs response equation in GraphPad Prism.

[8] = target: T2, human PD-L1, cell-surface; test: cell-based or functional assay; remark: listed apart in the source
[9] = target: T2, human PD-L1, cell-surface; test: cell-based or functional assay; remark: listed apart in the source
[10] = target: T1, mouse FcRn (R&D systems, 9114-Fc); test: SPR, antibody immobilised, FcRn in flow, pH 6.0, steady state affinity; pH 6.0
From the text: (§3) The neonatal Fc receptor (FcRn) binding is critical for antibody recycling (Martins et al., 2016). […] G1-AA/HeID1.3 was included as an isotype control IgG control lacking mutations in the CH3 domain.
(§4) Briefly, mAb² were individually coated on flow cell 2, 3 and 4 of Series S Sensor Chip CM5 (GE Healthcare, BR100530) to achieve a response of approximately 1000 RU. Flow cell 1 was activated/deactivated but left blank as a reference. Human FcRn (Acro Biosystems, FCM-H5286) or mouse FcRn (R&D systems, 9114-Fc) was dialysed and diluted in MHBS-EP⁺B pH 6.0 or pH 7.4 buffer (10 mM MES, FortéBio, 18-5026; 1×HBS-EP, GE Healthcare, BR100669; 0.1 mg/ml BSA, Sigma, A7906) and injected on flow cell 1, 2, 3 and 4 at 2000-3000 nM with 2-fold dilutions for 1 min at 80 μl/min and then allowed to dissociate in buffer for 3 min. […] Subtracted data (flow cell 2−flow cell 1, flow cell 3−flow cell 1, or flow cell 4−flow cell 1) was analysed using Biacore T200 Evaluation Software 2.0 to identify binding using the model steady state affinity.

[11] = target: Human FcRn (Acro Biosystems, FCM-H5286) (human, UniProt P55899 24-297; P61769 21-119); test: as above
Human FcRn (Acro Biosystems, FCM-H5286), sequence (P55899 24-297 limits assumed, chain 1 of 2): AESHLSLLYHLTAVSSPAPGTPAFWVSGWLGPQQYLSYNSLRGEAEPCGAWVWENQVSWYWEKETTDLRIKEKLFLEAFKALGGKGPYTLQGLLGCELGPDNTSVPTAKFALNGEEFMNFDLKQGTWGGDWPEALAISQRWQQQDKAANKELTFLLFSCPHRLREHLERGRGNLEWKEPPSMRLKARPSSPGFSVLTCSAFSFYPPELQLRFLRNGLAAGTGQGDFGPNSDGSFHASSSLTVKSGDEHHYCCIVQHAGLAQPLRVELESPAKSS
Human FcRn (Acro Biosystems, FCM-H5286), sequence (P61769 21-119 limits assumed, chain 2 of 2): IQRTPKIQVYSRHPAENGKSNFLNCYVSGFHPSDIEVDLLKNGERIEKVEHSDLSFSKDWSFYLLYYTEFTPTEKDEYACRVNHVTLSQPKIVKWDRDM
From the text: as §3, §4

Binder	EC50 (nM), IFN-γ release, human MLR [1]	EC50 [2]	EC50 [3]	Kd [4]	Kd [5]	EC50 (nM), mouse IL-2 release, DO11.10 / LK35.2 PD-L1 blockade assay [6]	EC50 [7]	EC50 (nM), IFN-γ release, CEF antigen recall assay (CD8+ T cell activation) [8]	EC50 (nM), IFN-γ release, CEFT antigen recall assay (CD4+ T cell activation) [9]	Kd [10]	Kd [11]
G1-AA/E12v2 (antibody, human IgG1, kappa, L234A L235A, V domains shown, anti-PD-L1 IgG1 with LALA) VH: EVQLVQSGAEVKRPGASVKVSCKASGYPFTSYGISWVRQAPGQGLEWMGWISAYSGGTNYAQKLQGRVTMTTDTSTSTAYMELRSLRSDDTAVYYCARDLFPTIFGVSYYYYWGQGTLVTVSS VL: DIQMTQSPSTLSASVRDRVIITCRASQSIGNRLAWYQHKPGKAPKLLIYEASTSETGVPSRFSGSGSGTDFTLTISSLQPEDFATYYCQQSYSTPYTFGQGTKLEIKR	0.08 nM	3.1 nM	0.6 nM	0.21 nM	0.37 nM	1.19 nM	0.8 nM	0.04 nM	0.06 nM		
G1-AA/HeID1.3 (antibody, human IgG1, kappa, L234A L235A, anti-hen egg lysozyme IgG1 with LALA, isotype control) heavy: not shown light: DIQMTQSPASLSASVGETVTITCRASGNIHNYLAWYQQKQGKSPQLLVYNAKTLADGVPSRFSGSGSGTQYSLKINSLQPEDFGSYYCQHFWSTPRTFGGGTKLEIKRTVAAPSVFIFPPSDEQLKSGTASVVCLLNNFYPREAKVQWKVDNALQSGNSQESVTEQDSKDSTYSLSSTLTLSKADYEKHKVYACEVTHQGLSSPVTKSFNRGEC										160 nM	1230 nM
